Experimental data taken from patent publication US11111484B2, “Streptococcus bacteriophage lysins for detection and treatment of gram positive bacteria” (priority 2011, dated 2021).
Entries after “also recorded” stand apart in the source; their conditions may differ.

Experiments:
S. pneumoniae R36 = assay: ΔPlySs1 OD600 lysis, 1 hr, optimal buffering conditions; type: cell-based, Streptococcus pneumoniae
S. pyogenes D471 = assay: as above; type: cell-based, Streptococcus pyogenes
E. faecalis V583 = assay: as above; type: cell-based, Enterococcus faecalis
S. simulans TNK3 = assay: as above; type: cell-based, Staphylococcus simulans
[1] = test system: Group E streptococci K131; assay: as above; type: cell-based
MRSA = MRSA mouse sepsis model; type: in vivo, FVB/NJ mice
Experimental: PlySs2 lysin activity against S. aureus has been further evaluated in an MRSA mouse sepsis model. In the MRSA mouse sepsis model, susceptible mice (FVB/NJ mice, weight range 15-20 g) were injected with 500 μL of 5×10^5 (approx LD100) MRSA cells/mL in 5% hog gastric mucin in PBS intraperitoneally (IP). After 3 hours, all of the mice are bacteremic with MRSA in their organs (including spleen, liver, kidney, and heart/blood). To determine PlySs2 activity in this model, 500 μL PlySs2 at 2 mg/mL was injected IP 3 hours after injecting MRSA. […] Control mice were injected with 500 μL PBS. Survival was evaluated over ten days. The control mice die within 18-20 hours.

MRSA strain MW2 [2] = assay: resistance assay, exposure to incrementally increasing concentrations; type: cell-based, Staphylococcus aureus; conditions: concentration doubled daily from 1/32 to 4× MIC over 8 days
S. pyogenes strain 5005 = assay: as above; type: cell-based, Streptococcus pyogenes; conditions: S. pyogenes 5005; concentration doubled daily from 1/32 to 4× MIC over 8 days
MRSA strain MW2 [3] = assay: murine septicemia model, MRSA infection alone; type: in vivo, FVB/NJ mice; conditions: PlySs2 1 mg
Experimental: (§1) The Rockefeller University's Institutional Animal Care and Use Committee approved all in vivo protocols. A systemic infection model described in Daniel, A. et al., was used to test for the in vivo efficacy of PlySs2 against multiple gram-positive bacteria. Briefly, 4-5 week old female FVB/NJ mice (weight range 15 to 20 g) were obtained from The Jackson Laboratory (Bar Harbor, Me.). After a period of acclimation, mice were injected intraperitoneally (IP) with 0.5 ml of mid log-phase (OD600 0.5) bacteria diluted with 5% hog gastric mucin (Sigma) in saline. Bacterial suspensions contained ˜5×10^5 CFU/ml of MW2, a PVL toxin-encoding MRSA strain, ˜1×10^7 of MGAS5005, an M1 serotype of Streptococcus pyogenes that is virulent in humans and mice (Musser), or a combination of both bacteria simultaneously at the above concentrations for the mix infection experiments. Actual bacterial inoculation titers were calculated by serial dilution and plating to Columbia blood agar plates for each experiment. Mice became bacteremic within one to three hours and contained MRSA and/or S. pyogenes in their organs (including spleen, liver, kidney, and heart/blood) ([50], and unpublished observations). […] The survival rate for each experimental group was monitored every 12 hours for the first 24 hours then every 24 hours up to 10 days post-infection. The data were statistically analyzed by Kaplan Meier Survival curves and a Logrank test performed for 95% confidence intervals using the Prism computer program (GraphPad Software; La Jolla, Calif.).
(§2) To determine if the broad lytic activity of PlySs2 could provide in vivo protection from infection with gram-positive pathogens, either alone or as a mixed infection, FVB/NJ mice were intraperitoneally injected with ˜5×10^5 CFU of MRSA strain MW2, ˜1×10^7 of S. pyogenes strain MGAS5005 and/or both bacteria simultaneously at the concentrations above. […] Mice were then monitored for survival over ten days. […]

[4] = test system: S. pyogenes strain MGAS5005; assay: murine septicemia model, S. pyogenes infection alone; type: in vivo, FVB/NJ mice; conditions: PlySs2 2 mg
Experimental: as §1, §2

[5] = test system: cultures from the oral cavities of two rats; assay: rat oral cavity microbiota study, drops on culture lawns; type: cell-based, rat oral bacteria; conditions: 10 μL PlySs2 drops on BHI agar lawns; the one culture confirmed as S. aureus
S. suis 7997 = assay: PlySs2 biochemical characterization, turbidity reduction (OD600)

B1: ΔPlySs1: truncated PlySs1 lysin, SEQ ID NO:2, N-terminal 254 amino acids: only N-terminal enzymatic and central binding domains (protein, listed as Streptococcus suis)
chain: MTINLETSIRWMSDRVGKVSYSMDYRNGPNSYDCSSAVYYALMAGGAISAGWAVNTEYMHDWLIRNGYVLVAENKPFNAQRHDVCILGKRGYSSGAGGHVVIFVDNVNVIHCNYARNGISIDNYNQVHRGMYYYLYRPANQPSISNKSLDQLVKETLAGVHGNGDTRKASLGSQYEAVMAVINGKASASEKSDEELAREVLAGKHGAGEDRKRSLGPRYEPVQAKVNELLKAKEKPSETAKNEPQTVQFKEDGDL
- lysis value after 1 hr (treated/untreated OD600 ratio) (S. pneumoniae R36; 6.5 μg/ml): 0.25
- lysis value after 1 hr (treated/untreated OD600 ratio) (S. pneumoniae R36; 13 μg/ml): 0.22
- lysis value after 1 hr (treated/untreated OD600 ratio) (S. pneumoniae R36; 30 μg/ml): 0.14
- lysis value after 1 hr (treated/untreated OD600 ratio) (S. pneumoniae R36; 65 μg/ml): 0.16
- lysis value after 1 hr (treated/untreated OD600 ratio) (S. pneumoniae R36; 130 μg/ml): 0.12
- lysis value after 1 hr (treated/untreated OD600 ratio) (S. pyogenes D471; 6.5 μg/ml): 0.39
- lysis value after 1 hr (treated/untreated OD600 ratio) (S. pyogenes D471; 13 μg/ml): 0.27
- lysis value after 1 hr (treated/untreated OD600 ratio) (S. pyogenes D471; 30 μg/ml): 0.17
- lysis value after 1 hr (treated/untreated OD600 ratio) (S. pyogenes D471; 65 μg/ml): 0.13
- lysis value after 1 hr (treated/untreated OD600 ratio) (S. pyogenes D471; 130 μg/ml): 0.09
- lysis value after 1 hr (treated/untreated OD600 ratio) (E. faecalis V583; 6.5 μg/ml): 0.98
- lysis value after 1 hr (treated/untreated OD600 ratio) (E. faecalis V583; 13 μg/ml): 0.93
- lysis value after 1 hr (treated/untreated OD600 ratio) (E. faecalis V583; 30 μg/ml): 0.84
- lysis value after 1 hr (treated/untreated OD600 ratio) (E. faecalis V583; 65 μg/ml): 0.71
- lysis value after 1 hr (treated/untreated OD600 ratio) (E. faecalis V583; 130 μg/ml): 0.52
- lysis value after 1 hr (treated/untreated OD600 ratio) (S. simulans TNK3; 6.5 μg/ml): 0.96
- lysis value after 1 hr (treated/untreated OD600 ratio) (S. simulans TNK3; 13 μg/ml): 1.00
- lysis value after 1 hr (treated/untreated OD600 ratio) (S. simulans TNK3; 30 μg/ml): 1.00
- lysis value after 1 hr (treated/untreated OD600 ratio) (S. simulans TNK3; 65 μg/ml): 1.00
- lysis value after 1 hr (treated/untreated OD600 ratio) (S. simulans TNK3; 130 μg/ml): 0.96
- lysis value after 1 hr (treated/untreated OD600 ratio) ([1]; 6.5 μg/ml): 0.69
- lysis value after 1 hr (treated/untreated OD600 ratio) ([1]; 13 μg/ml): 0.50
- lysis value after 1 hr (treated/untreated OD600 ratio) ([1]; 30 μg/ml): 0.33
- lysis value after 1 hr (treated/untreated OD600 ratio) ([1]; 65 μg/ml): 0.22
- lysis value after 1 hr (treated/untreated OD600 ratio) ([1]; 130 μg/ml): 0.15

B2: PlySs2: Streptococcus suis prophage lysin, SEQ ID NO:3; N-terminal CHAP domain and C-terminal SH3-type 5 domain (protein, listed as Streptococcus suis)
chain: MTTVNEALNNVRAQVGSGVSVGNGECYALASWYERMISPDATVGLGAGVGWVSGAIGDTISAKNIGSSYNWQANGWTVSTSGPFKAGQIVTLGATPGNPYGHVVIVEAVDGDRLTILEQNYGGKRYPVRNYYSAASYRQQVVHYITPPGTVAQSAPNLAGSRSYRETGTMTVTVDALNVRRAPNTSGEIVAVYKRGESFDYDTVIIDVNGYVWVSYIGGSGKRNYVATGATKDGKRFGNAWGTFK
- survival evaluated over ten days (MRSA; 500 μL PlySs2 at 2 mg/mL IP 3 hours after MRSA): remarkable survival
- mice cleared of bacteremia (survival over 10 days) (MRSA; MRSA bacteremia, FIG. 24): 95%
- development of resistance (MRSA strain MW2 [2]): Neither S. aureus strain developed resistance; also recorded: None of MRSA strain MW2, MSSA strain 8325, nor S. pyogenes strain 5005 developed resistance
- development of resistance (S. pyogenes strain 5005): neither MRSA nor S. pyogenes established resistance; also recorded: None of MRSA strain MW2, MSSA strain 8325, nor S. pyogenes strain 5005 developed resistance
- survival over 10 days (mice surviving/total) (MRSA strain MW2 [3]; IP 3 h post-infection, ClyS 1 mg): 16/18
- mice died at forty-eight hours (dead/total) (MRSA strain MW2 [3]): 2/18
- survival over 10 days (MRSA strain MW2 [3]; ClyS 1 mg): 88%
- mice died at day three (dead/total) [4]: 1/16
- survival over 10 days ([4]; PlyC 1 mg): 94%
- survival over 10 days (mice surviving/total) ([4]; PlyC 1 mg): 15/16
- clearing zone around drops on lawns of 6 rat oral cultures [5]: only appeared on one culture
- consecutive room temperature to −80° C. freeze-thaws without effect on activity (S. suis 7997): 10
- effect of NaCl on bacteriolysis (S. suis 7997; 0-1000 mM NaCl, constant enzyme concentration): bacteriolysis decreased from 0-1000 mM NaCl
- effect of EDTA on lysis (S. suis 7997; 15 mM Na3PO4, pH 8.0, various EDTA concentrations): impeded PlySs2-induced lysis
- activity after 15 days of 4° C. incubation (S. suis 7997; 4° C., 15 days): no observable decrease in activity; also recorded: stable
- activity after incubation at 37° C. for 24 hours (S. suis 7997; 37° C., 24 hours): retained full activity; also recorded: stable
- stability up to 24 hours at 37° C. in buffer (S. suis 7997; 37° C., 24 hours, killing of strain 7997): > 90%
- activity after 48-hour 37° C. incubation (S. suis 7997; 37° C., 48 hours): diminished activity
- activity maintained after 48 hours at 37° C. (S. suis 7997; 37° C., 48 hours): at least 50%
- temperature at which activity completely abolished (S. suis 7997; 30 min incubation): 60 °C
- pH of maximal lysis in BTP (S. suis 7997; BTP buffer pH 7.0-9.7): 9.7
- acute activity up to pH (S. suis 7997; Bis-tris propane (BTP) buffer): ≤ 9.7
- activity down to pH (S. suis 7997; PlySs2 32 μg/ml): ≥ 6.0
- effect of excess DTT on activity (S. suis 7997; data not shown): no impact
- pH of strongest activity (S. suis 7997; phosphate/citrate buffer pH 4.6-8.0, PlySs2 32 μg/ml): 8.0
- activity retained on storage in buffer at −80° C. (S. suis 7997; up to at least 7 months at −80° C.): ~100%
- NaCl concentration of greatest activity (S. suis 7997; various NaCl concentrations): 0 mM
